Source: patent US20040253632A1
Read-outs that look alike come from different tables or passages of the source.

Key:
Test in all cases: cell-based or functional assay
[1] = target: DO11.10 TCR (endogenous T cell receptor of the DO11.10 T cell hybridoma)
[2] = target: DO11.10 scTCR/murine CD3ζ fusion molecule (membrane-bound, on transfected cells) (mouse) (UniProt P24161)
[3] = target: DO11.10 TCR (endogenous T cell receptor of the DO11.10 T cell hybridoma); remark: listed apart in the source

UniProt P24161, sequence (P24161 whole entry, the tested form may be a part): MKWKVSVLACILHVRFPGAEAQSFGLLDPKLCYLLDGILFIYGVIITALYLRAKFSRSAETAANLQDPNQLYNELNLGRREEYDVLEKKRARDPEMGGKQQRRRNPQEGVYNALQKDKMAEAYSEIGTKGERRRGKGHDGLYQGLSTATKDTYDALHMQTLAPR

Substance	IL-2 ELISA value; DO11.10 T cells; 1 ng complex/well [1] [A405]	IL-2 ELISA value; DO11.10 T cells; 3 ng complex/well [1] [A405]	IL-2 ELISA value; DO11.10 T cells; 7 ng complex/well [1] [A405]	IL-2 ELISA value; DO11.10 T cells; 15 ng complex/well [1] [A405]	IL-2 ELISA value; DO11.10 T cells; 31 ng complex/well [1] [A405]	IL-2 ELISA value; DO11.10 T cells; 62 ng complex/well [1] [A405]	IL-2 ELISA value; DO11.10 T cells; 125 ng complex/well [1] [A405]	IL-2 ELISA value; DO11.10 T cells; 250 ng complex/well [1] [A405]	IL-2 ELISA value; BWDZ:CD4+ transfectants; 40 ng complex/well [2] [A405]	IL-2 ELISA value; BWDZ:CD4+ transfectants; 200 ng complex/well [2] [A405]	IL-2 ELISA value; BWDZ:CD4+ transfectants; 1000 ng complex/well [2] [A405]	IL-2 ELISA value; DO11.10 scTCR 2B4 transfectants; 1 ng complex/well [2] [A405]	IL-2 ELISA value; DO11.10 scTCR 2B4 transfectants; 3 ng complex/well [2] [A405]	IL-2 ELISA value; DO11.10 scTCR 2B4 transfectants; 7 ng complex/well [2] [A405]	IL-2 ELISA value; DO11.10 scTCR 2B4 transfectants; 15 ng complex/well [2] [A405]	IL-2 ELISA value; DO11.10 scTCR 2B4 transfectants; 31 ng complex/well [2] [A405]	IL-2 ELISA value; DO11.10 scTCR 2B4 transfectants; 62 ng complex/well [2] [A405]	IL-2 ELISA value; DO11.10 scTCR 2B4 transfectants; 125 ng complex/well [2] [A405]	IL-2 ELISA value; DO11.10 scTCR 2B4 transfectants; 250 ng complex/well [2] [A405]	IL-2 ELISA value; DO11.10 T cells; 100 ng complex/well [3] [A405]	other results
scIA^d/GD-IgM fusion (scIA^d/GD fused to CH2-CH3-CH4 of human IgM heavy chain), multi-valent (from UniProt P01871 106-453) (peptide-MHC)	0.153	0.14	0.148	0.14	0.165	0.157	0.18	0.193	0.282	0.309	0.375	0.196	0.19	0.213	0.199	0.226	0.224	0.233	0.224	0.221	IL-2 ELISA value; DO11.10 T cells; 0.3 ng complex/well [3]: 0.189 A405; IL-2 ELISA value; DO11.10 T cells; 1 ng complex/well [3]: 0.184 A405; IL-2 ELISA value; DO11.10 T cells; 4 ng complex/well [3]: 0.179 A405; IL-2 ELISA value; DO11.10 T cells; 11 ng complex/well [3]: 0.188 A405; IL-2 ELISA value; DO11.10 T cells; 33 ng complex/well [3]: 0.206 A405; IL-2 ELISA value; DO11.10 T cells; 300 ng complex/well [3]: 0.248 A405
scIA^d/OVA-IgG multimer (scIA^d/OVA-Cκ fusion with scIA^d/OVA-IgG2b heavy chain fusion) (peptide-MHC)	–	–	–	–	–	–	–	–	–	–	–	–	–	–	–	–	–	–	–	2.9	IL-2 ELISA value; DO11.10 T cells; 12.5 ng complex/well [3]: 0.184 A405; IL-2 ELISA value; DO11.10 T cells; 25 ng complex/well [3]: 0.758 A405; IL-2 ELISA value; DO11.10 T cells; 50 ng complex/well [3]: 2.11 A405
multi-valent scIA^d/OVA-BirA complexes (biotinylated scIA^d/OVA-BirA bound to avidin) (from UniProt P02701 25-152) (peptide-MHC)	–	–	–	–	–	–	–	–	–	–	–	–	–	–	–	–	–	–	–	–	IL-2 ELISA value; DO11.10 cells; 31 ng complex/well [3]: 0.554 A450; IL-2 ELISA value; DO11.10 cells; 62 ng complex/well [3]: 0.744 A450; IL-2 ELISA value; DO11.10 cells; 125 ng complex/well [3]: 0.916 A450; IL-2 ELISA value; DO11.10 cells; 500 ng complex/well [3]: 1.6 A450; IL-2 ELISA value; DO11.10 cells; 1000 ng complex/well [3]: 1.86 A450
single-chain IA^d linked to OVA 323-339 (scIA^d/OVA), monovalent (peptide-MHC)	–	–	0.236	0.397	0.646	1.03	1.06	0.665	–	–	–	–	–	0.236	0.397	0.646	1.03	1.06	1.06	3.06	IL-2 ELISA value; DO11.10 T cells; 12.5 ng complex/well [3]: 0.176 A405; IL-2 ELISA value; DO11.10 T cells; 25 ng complex/well [3]: 0.209 A405; IL-2 ELISA value; DO11.10 T cells; 50 ng complex/well [3]: 1.19 A405; mean IL-2 absorbance reading of eight DMSO control wells (assay plate 5-2); DO11.10 T cells on 50 ng/well scIA^d/OVA [3]: 2.2 A450
scIA^d/OVA-IgM fusion (scIA^d/OVA fused to CH2-CH3-CH4 of human IgM heavy chain), multi-valent (from UniProt P01871 106-453) (peptide-MHC)	0.268	0.529	0.838	1.18	1.42	1.33	1.61	1.48	0.305	0.34	1.28	0.214	0.234	0.264	0.273	1.32	1.82	2.33	2.27	1.7	IL-2 ELISA value; DO11.10 T cells; 0.3 ng complex/well [3]: 0.192 A405; IL-2 ELISA value; DO11.10 T cells; 1 ng complex/well [3]: 0.195 A405; IL-2 ELISA value; DO11.10 T cells; 4 ng complex/well [3]: 0.23 A405; IL-2 ELISA value; DO11.10 T cells; 11 ng complex/well [3]: 0.601 A405; IL-2 ELISA value; DO11.10 T cells; 33 ng complex/well [3]: 1.64 A405; IL-2 ELISA value; DO11.10 T cells; 300 ng complex/well [3]: 0.853 A405
